# Measured values: patent publication US9393271B2, “GHRH agonists for islet cell transplantation and function and the treatment of diabetes” (UNIVERSITY OF MIAMI, priority 2012, dated 2016)
# Read-outs that look alike come from different tables or passages of the source. Non-standard residues stand in square brackets, D forms with d. Residues, ends and D or L forms follow the SMILES beside them. No end group written: not given here. *: point of attachment. NMeY = CN[C@@H](Cc1ccc(O)cc1)C(=O)O; Agmatine = N=C(N)NCCCCN*; Nle = CCCC[C@H](N)C(=O)O; Orn = NCCC[C@H](N)C(=O)O; Abu = CC[C@H](N)C(=O)O
# T1: GHRH receptor (human pituitary membrane homogenates) (Homo sapiens, UniProt Q02643)
# T1 sequence (Q02643 23-423): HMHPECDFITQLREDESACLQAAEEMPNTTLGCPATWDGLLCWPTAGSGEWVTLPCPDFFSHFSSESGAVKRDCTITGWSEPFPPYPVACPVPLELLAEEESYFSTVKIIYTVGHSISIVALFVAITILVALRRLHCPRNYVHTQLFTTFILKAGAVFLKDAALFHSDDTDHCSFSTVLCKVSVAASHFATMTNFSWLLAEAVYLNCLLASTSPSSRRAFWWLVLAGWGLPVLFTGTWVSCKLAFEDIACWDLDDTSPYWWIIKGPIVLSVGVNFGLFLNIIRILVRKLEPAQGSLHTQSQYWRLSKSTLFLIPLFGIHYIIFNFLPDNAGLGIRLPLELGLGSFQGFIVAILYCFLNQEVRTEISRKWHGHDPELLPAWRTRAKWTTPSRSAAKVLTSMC
# T2: GHRH receptor (rat) (rat, UniProt Q02644)
# T2 sequence: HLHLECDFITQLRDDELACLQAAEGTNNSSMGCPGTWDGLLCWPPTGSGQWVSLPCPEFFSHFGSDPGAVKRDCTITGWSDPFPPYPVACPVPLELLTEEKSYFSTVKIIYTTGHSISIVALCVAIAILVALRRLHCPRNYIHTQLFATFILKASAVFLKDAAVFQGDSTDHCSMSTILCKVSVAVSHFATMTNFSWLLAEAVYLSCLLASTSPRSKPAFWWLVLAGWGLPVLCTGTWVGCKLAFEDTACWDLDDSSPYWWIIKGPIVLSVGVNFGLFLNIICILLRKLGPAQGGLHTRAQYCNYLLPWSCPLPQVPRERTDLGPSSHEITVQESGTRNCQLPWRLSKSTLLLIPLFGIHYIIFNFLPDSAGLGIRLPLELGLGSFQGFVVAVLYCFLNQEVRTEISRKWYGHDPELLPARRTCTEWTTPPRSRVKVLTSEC
# T3: GHRH receptor in human pituitary membrane homogenates (human, UniProt Q02643)
# T3 sequence: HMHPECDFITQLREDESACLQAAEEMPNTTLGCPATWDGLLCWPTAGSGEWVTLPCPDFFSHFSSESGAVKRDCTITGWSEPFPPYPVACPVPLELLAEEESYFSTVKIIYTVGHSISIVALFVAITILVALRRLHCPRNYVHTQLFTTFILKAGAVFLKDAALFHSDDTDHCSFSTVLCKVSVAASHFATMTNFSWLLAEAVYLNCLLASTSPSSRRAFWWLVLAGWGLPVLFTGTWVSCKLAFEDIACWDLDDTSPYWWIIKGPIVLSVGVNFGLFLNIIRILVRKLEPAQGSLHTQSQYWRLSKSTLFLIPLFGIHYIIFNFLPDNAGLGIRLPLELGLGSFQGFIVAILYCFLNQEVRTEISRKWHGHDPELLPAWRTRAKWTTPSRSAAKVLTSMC
# Columns and labels:
# rat islets = assay: Viability of rat islets alone or in co-culture with adrenal cells; assay type: cell-based; settings: rat islets alone, 10^-8 M, 24 hrs
# Description: Pancreatic islets were isolated from female Wistar rats as described in prior art, and according to guidelines established by the University Institutional Animal Care and Use Committee. Briefly, animals were anesthetized by 3% isoflurane and digestion solution (Collagenase V; Sigma-Aldrich) was injected via the pancreatic duct. Islets were isolated by discontinuous Ficoll gradient centrifugation (Sigma-Aldrich). Isolated islets were cultured in RPMI 1640 (PAA) supplemented with 10% FBS at 37° C. in a 5% CO2 atmosphere prior to further experimentation. Yield and purity of islets were determined by microscopic sizing after staining with dithizone (Sigma-Aldrich) as previously described.
# Female Wistar rats were used as adrenal donors according to guidelines established by the University Institutional Animal Care and Use Committee. After euthanization, the adrenal glands were rapidly removed and kept in PBS at 4° C. After removal of adipose tissue, the capsule was removed. The tissue was then incubated at 37° C. in PBS containing collagenase type II (2.0 mg/ml; Sigma-Aldrich) and DNase (0.15 mg/ml; Sigma-Aldrich). After incubation for 30 min, the digestion was stopped by adding cold PBS. […]
# Isolated rat islets and co-cultured islets were treated with P-27403 at a concentration of 10^−8 M or with 0.1% DMSO as control for 24 hrs, and then analyzed for viability. […]
# GH level [1] = assay: In vivo endocrine activity (GH release), subcutaneous administration; settings: rat, s.c.
# Description: Subcutaneous Administration. Adult male rats were used and anesthetized with pentobarbital (6 mg/100 g, b.w.), by i.p. injection. […] Blood samples were taken from the jugular vein 5, 15 and/or 30 minutes after the injection. The blood samples were centrifuged, plasma was removed and the GH level was measured by ELISA. The results are summarized in terms of potency in Table 9.
# GH level [2] = assay: In vivo endocrine activity (GH release), intravenous administration; settings: rat
# Description: In vivo tests on endocrine activity of new GHRH agonists (Intravenous administration). For in vivo tests based on intravenous administration, adult male Sprague-Dawley rats were anesthetized with pentobarbital (6 mg/100/g, b.w.), and GHRH agonists were injected 20 minutes after the injection of pentobarbital. Blood samples were taken from the jugular vein (pretreated level), immediately after hGHRH(1-29)NH2 injection (as a control) or after hGHRH analogs injection. Blood samples were taken from the jugular vein 5, 15 and 30 minutes after the injection. The blood samples were centrifuged, plasma was removed and the GH level was measured by ELISA.
# INS-1 cells [3] = assay: INS-1 cell viability (CellTiter 96 AQueous One Solution); assay type: cell-based, rat; settings: 10^-7 to 10^-9 M, 24 hrs
# Description: (§1) Rat insulinoma cells (INS-1) were cultured in RPMI Medium 1640 (PAA) containing 2 mM L-glutamine, 10% FBS, 1 mM Na-pyruvate, 50 μM 2-mercaptoethanol, and 100 U/mL penicillin/streptomycin (Gibco) at 37° C. in a 5% CO2 humidified incubator. Medium was exchanged every second day and cells were passaged once per week. INS-1 cells were treated with the GHRH agonist P-27403 at concentrations from 10^−7 to 10^−9 M for 24 hrs and was analyzed for viability and apoptosis. Viability was assessed using CellTiter 96 AQueous One Solution Cell Proliferation Assay (Promega) according to the manufacturer's instructions. Apoptosis was assayed by determination of caspase 3/7 activity using Caspase-Glo 3/7 Assay (Promega) according to manufacturer's instructions.
# INS-1 cells were grown for 72 hours before experimentation. Cells were treated with different GHRH agonist peptides (MR-356/P-20356, MR-361/P-20361, MR-367/P-20367, MR-403/P-27403, MR-409/P-27409, MR-502/P-25502) at different concentrations (10^−6-10^−10 M) or with 0.1% (vol/vol) DMSO as control for 24 h, 48 h and 72 h. Viability was assessed using CellTiter 96 AQueous One Solution Cell Proliferation Assay (Promega) according to the manufacturer's instructions. Treatment of INS-1 cells with GHRH agonist peptides for 72 h improved cell viability. Cell viability was expressed as percent of cells treated with control DMSO (FIG. 7).
# INS-1 cells [4] = assay: INS-1 proliferation (BrdU Cell Proliferation Assay); assay type: cell-based, rat
# Description: For determination of proliferation activity, BrdU incorporation was performed in INS-1 cells following exposure to P-27403. Proliferation was measured using BrdU Cell Proliferation Assay (Millipore) following the manufacturer's description. The maximal enhancement in proliferation rate of 16% compared to control was found at 10^−8 M concentration of P-27403 (FIG. 1C).
# INS-1 cells were grown for 72 h before experimentation. Cells were treated with GHRH agonists MR356, MR367, and MR403 at different concentrations or with 0.1% (vol/vol) DMSO as control for 24 h, 48 h and 72 h. Proliferation was measured using BrdU Cell Proliferation Assay (Millipore) following the manufacturer's description.
# INS-1 cells [5] = assay: INS-1 apoptosis, caspase 3/7 activity (Caspase-Glo 3/7); assay type: cell-based, rat; settings: 24 hrs
# Description: as §1
# INS-1 cells were grown for 72 h before experimentation. Cells were treated with various GHRH agonist peptides at different concentrations or with 0.1% (vol/vol) DMSO as control for 24 h, 48 h and 72 h. Apoptosis was assayed by determination of caspase 3/7 activity using Caspase-Glo 3/7 Assay (Promega) according to the manufacturer's instructions.
# [6] = target: T1, GHRH receptor (human pituitary membrane homogenates); assay: GHRH receptor binding, ligand competition with 125I-labeled JV-1-42 (Table 7); parameters: Normal human pituitaries were purchased from the National Hormone and Peptide Program; tissue National Hormone and Peptide Program (A. F. Parlow, Harbor-UCLA Medical Center, Torrance, Calif.); host or cells: normal human pituitary, membrane fraction / homogenate; settings: JI-38 = 1
# GHRH receptor (rat) [7] = target: T2, GHRH receptor (rat)
# [8] = target: GHRH receptor in human pituitary membrane homogenates (human) (UniProt Q02643); assay: ligand competition, 125I-JV-1-42 displaced, human pituitary membranes
# [9] = target: GHRH receptor in human pituitary membrane homogenates (human) (UniProt Q02643); assay: as above; remark: listed apart in the source
# [10] = target: GHRH receptor in human pituitary membrane homogenates (human) (UniProt Q02643); assay: ligand competition, [His1,125I-Tyr10,Nle27]hGHRH(1-32)NH2 displaced, human pituitary membranes
# [11] = target: T3, GHRH receptor in human pituitary …; assay: ligand competition, 125I-JV-1-42 displaced, human pituitary membranes
# GHRH receptor (rat) [12] = target: T2, GHRH receptor (rat); assay: cell-based or functional assay
# [13] = target: T3, GHRH receptor in human pituitary …; assay: ligand competition, 125I-JV-1-42 displaced, human pituitary membranes; remark: listed apart in the source
molecule,measurement,setting,value
"CCCC[C@H](NC(=O)[C@@H](NC(=O)[C@H](CC(=O)O)NC(=O)[C@H](CCC(N)=O)NC(=O)[C@H](CC(C)C)NC(=O)[C@H](CC(C)C)NC(=O)[C@H](CCCN)NC(=O)[C@H](CCCNC(=N)N)NC(=O)[C@H](C)NC(=O)[C@H](CO)NC(=O)[C@H](CC(C)C)NC(=O)[C@H](CCC(N)=O)NC(=O)[C@H](CC)NC(=O)[C@H](CC(C)C)NC(=O)[C@@H](NC(=O)[C@H](CCCN)NC(=O)[C@H](CCCNC(=N)N)NC(=O)[C@H](Cc1ccc(O)cc1)NC(=O)[C@H](CO)NC(=O)[C@H](CCC(N)=O)NC(=O)[C@@H](NC(=O)[C@H](Cc1ccccc1)NC(=O)[C@@H](NC(=O)[C@H](C)NC(=O)[C@H](CC(=O)O)NC(=O)[C@@H](C)NC(=O)[C@H](Cc1ccc(O)cc1)NC)[C@@H](C)CC)[C@@H](C)O)C(C)C)[C@@H](C)CC)C(=O)N[C@@H](CC(=O)O)C(=O)N[C@@H](CCCNC(=N)N)C(=O)NC [Peptide P-27403, [N—Me-Tyr^1, D-Ala^2, Gln^8, Orn^12, Abu^15, Orn^21, Nle^27, Asp^28]hGHRH(1-29)NH—CH3] (H-[NMeY][dA]DAIFTQSYR[Orn]VL[Abu]QLSAR[Orn]LLQDI[Nle]DR-NHMe)",Islet viability,rat islets,increase in viability
same,Islet viability,rat islets; listed as MR403,increase of viability
same,Stimulation of growth hormone levels after s.c. administration (comparison in words),GH level [1],stimulated greater growth hormone levels than hGHRH or JI-38
same,Stimulation of growth hormone levels after i.v. administration (comparison in words),GH level [2],most potent
same,Viability compared to control,INS-1 cells [3],increased viability at all concentrations used
same,Enhancement in proliferation rate compared to control,"INS-1 cells [4]; 10^-8 M, 24 hrs",16%
same,Cell proliferation compared to control,"INS-1 cells [4]; different concentrations, 24 h, 48 h and 72 h",significantly induced cell proliferation
same,"Apoptosis, caspase 3/7 activity",INS-1 cells [5]; 10^-7 to 10^-9 M,overall reduction of apoptosis
same,Reduction of apoptosis (caspases 3/7 activity),INS-1 cells [5]; 10^-8 M,14%
same,Reduction of apoptosis (caspases 3/7 activity),INS-1 cells [5]; 10^-9 M,18%
same,Relative affinitiy (Binding potency) vs JI-38,[6],27.19
JI-38 (peptide),"GH release from superfused rat pituitary cells, 1 nM for 3 min, GH by ELISA (peak fraction, average)",GHRH receptor (rat) [7],195 ng/mL
same,IC50,[8],4.35 nM
same,relative affinity (binding potency) vs JI-38,[8],1 JI-38 = 1
same,IC50,[9],1.71 nM
same,relative affinity (binding potency) vs GHRH (GHRH(1-29) = 1),[9],2.4
same,IC50,[10],1.95 nM
same,relative affinity (binding potency) vs GHRH (GHRH(1-29) = 1),[10],3.03
same,relative affinity (binding potency) vs JI-38,[10],1 JI-38 = 1
"[NMeY]ADAIFTQSYR[Orn]VL[Abu]QLSAR[Orn]LLQDI[Nle]D[Agmatine] [[N-Me-Tyr1, Gln8, Orn12, Abu15, Orn21, Nle27, Asp28, Agm29]hGHRH(1-29)]",IC50,[11],0.01 nM
same,relative affinity (binding potency) vs GHRH,[11],406 GHRH(1-29) = 1
same,relative affinity (binding potency) vs JI-38,[11],171 JI-38 = 1
same,GH-releasing potency in superfused rat pituitary cells relative to JI-38,GHRH receptor (rat) [12],~3 times (vs JI-38)
same,IC50,[13],0.27 nM
same,relative affinity (binding potency) vs JI-38,[13],16.1 JI-38 = 1
